Laboratory results published in patent publication US20190284603A1.

What was measured:
[1] = biological target: Recombinant unmodified nucleosomes; test: single-molecule TIRF time-lapse imaging, summed binding events
[2] = biological target: Mono-nucleosomes from mouse embryonic stem cells (ESCs) (mouse) (UniProt P68433); test: single-molecule TIRF time-lapse imaging, images every 15 minutes

| percent of nucleosomes scored (bound by antibody) [1] [%] | time to equilibrium of binding and dissociation [2] [min] | Substance |
| --- | --- | --- |
| 0.1 | – | Acetyl-Histone H3 (Lys9) (C5B11) Rabbit mAb (Alexa Fluor 647 Conjugate) #4484 (antibody) |
| – | 45 | Tri-Methyl-Histone H3 (Lys27) (C36B11) Rabbit mAb (Alexa Fluor 647 Conjugate) #12158 (antibody) |
| – | 75 | Tri-Methyl-Histone H3 (Lys4) (C42D8) Rabbit mAb (Alexa Fluor 555 Conjugate) #11960 (antibody) |
